# Experimental data: publication doi:10.1101/2020.01.21.914671
# Several values for one entry are separate records, joined by “and”; a condition that tells them apart may be missing. Equal entries are not always repeated.
# How the values were obtained:
# [1] = target: human Bak BH3 motif peptide (26-mer) (human); test: ITC
# [2] = target: human Bax BH3 motif peptide (28-mer) (human); test: ITC
# [3] = target: TANV16L (tanapoxvirus 16L) lacking the C-terminal 23 residues, wild type (tanapoxvirus); test: AUC
substance,measurement,setting,value
"TANV16L (tanapoxvirus 16L) lacking the C-terminal 23 residues, wild type (domain or fragment)",Kd,[1],38 nM
same,Kd,[2],70 nM
same,ratio of monomer:dimer,[3],3.5 :1
same,stoichiometry N,[3],2 and 4
